T1: FAM91A1^N (N terminus of FAM91A1, residues 1-328), wild type (UniProt Q658Y4 1-328)
T1 sequence (looked up): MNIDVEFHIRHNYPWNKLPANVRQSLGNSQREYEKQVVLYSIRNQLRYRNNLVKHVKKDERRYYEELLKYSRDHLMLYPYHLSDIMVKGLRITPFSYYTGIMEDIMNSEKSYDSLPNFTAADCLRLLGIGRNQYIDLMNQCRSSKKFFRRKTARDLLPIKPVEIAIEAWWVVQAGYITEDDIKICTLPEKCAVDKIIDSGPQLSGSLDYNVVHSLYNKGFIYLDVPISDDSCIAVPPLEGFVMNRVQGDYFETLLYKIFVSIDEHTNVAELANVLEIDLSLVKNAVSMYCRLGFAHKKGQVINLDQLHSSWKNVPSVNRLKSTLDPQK

The target of the first assay is T1, FAM91A1^N (N terminus of FAM91A1, …). The experiment in a line: ITC. On the technique in general: ITC needs no label: the signal is the heat of the interaction.
TPVDRHVSSSDRVGKPYRGVKPVFS (peptide, UniProt Q9NUY8-2 514-538, looked up) [TBC1D23^514-538 wild type]: binding was characterised by a dissociation constant (Kd) of 1150 ± 160 nM.

As for TPVDRHVSSSDRVGKPYCGVKPVFS (peptide, UniProt Q9NUY8-2 514-538, looked up) [TBC1D23^514-538 R531C], the “affinity as percent of that of WT” value was roughly 6.6%.

For TPVDRHVSSSDRVGKPYHGVKPVFS (peptide, UniProt Q9NUY8-2 514-538, looked up) [TBC1D23^514-538 R531H], the “affinity as percent of that of WT” value was roughly 7.9%.

In the case of TPVDRHVSSSDRVGKPYRGVKPVLS (peptide, UniProt Q9NUY8-2 514-538, looked up) [TBC1D23^514-538 F537L], the “affinity as percent of that of WT” value is roughly 16.4%.

The next assay shares this target. The experiment in a line: pull-down.
Consider TPVDRHVSSSDRVGKPYRGVKPVLSIGDEEEYDTDEIDSSSMSDD (domain or fragment, human, UniProt Q9NUY8-2 514-558, looked up) [GST-TBC1D23^514-558 F537L], for which the binding result is reported as “binds”.

As for TPVDQHVSSSDRVGKPYRGVKPVFSIGDEEEYDTDEIDSSSMSDD (domain or fragment, human, UniProt Q9NUY8-2 514-558, looked up) [GST-TBC1D23^514-558 R518Q], the binding result is “binds”.

Take APVDRHVSSSDRVGKPYRGVKPVFSIGDEEEYDTDEIDSSSMSDD (domain or fragment, human, UniProt Q9NUY8-2 514-558, looked up) [GST-TBC1D23^514-558 T514A]: the binding result is “binds”.

Regarding TPVDRHVSSSDRVGKAYRGVKPVFSIGDEEEYDTDEIDSSSMSDD (domain or fragment, human, UniProt Q9NUY8-2 514-558, looked up) [GST-TBC1D23^514-558 P529A], the binding result was “binds”.

As for TPVDRHVSSSDRVGKPYCGVKPVFSIGDEEEYDTDEIDSSSMSDD (domain or fragment, human, UniProt Q9NUY8-2 514-558, looked up) [GST-TBC1D23^514-558 R531C], the binding result was “binds”.

With TPVDRHVSSSDRVGKPYRGVKPVFSIGDEEEYDTDEIDSSSMSDD (domain or fragment, human, UniProt Q9NUY8-2 514-558, looked up) [GST-TBC1D23^514-558 wild type], the binding result is given as “binds”.

Regarding TPVDRHVSSSDRVGKPYHGVKPVFSIGDEEEYDTDEIDSSSMSDD (domain or fragment, human, UniProt Q9NUY8-2 514-558, looked up) [GST-TBC1D23^514-558 R531H], the binding result was “binds”.

In the case of TPVDRHVSSSDRVGKPYRGVNPVFSIGDEEEYDTDEIDSSSMSDD (domain or fragment, human, UniProt Q9NUY8-2 514-558, looked up) [GST-TBC1D23^514-558 K534N], the binding result is listed as “binds”.

Regarding TPVDRHVSSSDRVGKPYRGIKPVFSIGDEEEYDTDEIDSSSMSDD (domain or fragment, human, UniProt Q9NUY8-2 514-558, looked up) [GST-TBC1D23^514-558 V533I], the binding result was “binds”.

One may read the Kd as a measure of binding affinity in units of concentration. A higher Kd goes with lower affinity.

Values taken from publication PMC10636324 (Proceedings of the National Academy of Sciences of the …, 2023).
